# Results from patent publication US20250129140A1, “ANTI-HCMV ANTIBODIES AND ANTIGEN-BINDING FRAGMENTS THEREOF” (ICAHN SCHOOL OF MEDICINE AT MOUNT SINAI, priority 2021, published 2025).
# Target: MHC class I on ARPE-19 cells (Homo sapiens)
# Assay: flow cytometry on ARPE-19 cells infected with AD169R (GFP reporter), 6 dpi, antibody 2 µg/mL, anti-mouse AF647 secondary
substance,measurement,value
α-MHC-1 (W6/32) (antibody),"Q1, percent of cells GFP- and Alexa Fluor 647+",86.9%
same,"Q2, percent of cells GFP+ and Alexa Fluor 647+",12.7%
